The target in this experiment is T1, human CD38 (human, UniProt P28907 43-300, limits assumed).
T1 construct: also called hCD38
T1 sequence (looked up): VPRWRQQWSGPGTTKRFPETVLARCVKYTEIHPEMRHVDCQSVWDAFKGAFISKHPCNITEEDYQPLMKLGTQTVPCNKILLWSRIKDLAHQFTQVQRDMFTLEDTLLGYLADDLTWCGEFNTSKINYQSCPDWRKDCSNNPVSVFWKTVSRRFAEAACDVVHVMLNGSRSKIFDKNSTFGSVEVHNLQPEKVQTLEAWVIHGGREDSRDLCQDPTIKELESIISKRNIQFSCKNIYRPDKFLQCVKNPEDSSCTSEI
The experiment in a line: fluorescence polarisation competition with the labelled tracer peptide. On the technique in general: Polarisation of emitted light reports the rotation of a fluorescent probe.

The values that follow come from patent US20220064218A1 (Bicycle, published 2022).

By Ki is commonly meant a measure of affinity in units of concentration, obtained from inhibition or displacement. A high value points to lower affinity.

*1 amine or outer side, *2 acyl side, *3 side chain or, on linkers, in order; H or OH if unused. Bridges are numbered along the chain shown (N, C = ends). Where no end group is shown, it is not given here. TATA = O=C(CC[*:1])N1CN(C(=O)CC[*:2])CN(C(=O)CC[*:3])C1

B1: 66-50-16-T01-N001 (peptide)
peptide: ACYWNPFTACWSCEND
modifications: linker 2-10-13 via TATA (inferred)
notes: Synthetic bicyclic peptide cyclised with TATA
Molecule B1 came in with a Ki of 90 nM.

B2: 66-50-19-T02-N001 (peptide)
peptide: ACYWNPFTACYSCTEN
modifications: linker 2-10-13 via TATA (inferred)
notes: Synthetic bicyclic peptide cyclised with TATA; also called 66-50-19-T002-N001
On to B2, for which the Ki stood at 316 nM.
